The chains are these.
B1: BCL-2ΔLΔC WT (domain or fragment, human)
chain: MAHAGRTGYDNREIVMKYIHYKLSQRGYEWDAGDDVEENRTEAPEGTESEVVHLTLRQAGDDFSRRYRRDFAEMSSQLHLTPFTARGRFATVVEELFRDGVNWGRIVAFFEFGGVMCVESVNREMSPLVDNIALWMTEYLNRHLHTWIQDNGGWDAFVELYGPSMRA
B2: BCL-2ΔLΔC D103Y (domain or fragment, human)
chain: MAHAGRTGYDNREIVMKYIHYKLSQRGYEWDAGDDVEENRTEAPEGTESEVVHLTLRQAGDYFSRRYRRDFAEMSSQLHLTPFTARGRFATVVEELFRDGVNWGRIVAFFEFGGVMCVESVNREMSPLVDNIALWMTEYLNRHLHTWIQDNGGWDAFVELYGPSMRA
B3: BCL-2ΔLΔC A113G (domain or fragment, human)
chain: MAHAGRTGYDNREIVMKYIHYKLSQRGYEWDAGDDVEENRTEAPEGTESEVVHLTLRQAGDDFSRRYRRDFGEMSSQLHLTPFTARGRFATVVEELFRDGVNWGRIVAFFEFGGVMCVESVNREMSPLVDNIALWMTEYLNRHLHTWIQDNGGWDAFVELYGPSMRA
B4: BCL-2ΔLΔC G101V (domain or fragment, human)
chain: MAHAGRTGYDNREIVMKYIHYKLSQRGYEWDAGDDVEENRTEAPEGTESEVVHLTLRQAVDDFSRRYRRDFAEMSSQLHLTPFTARGRFATVVEELFRDGVNWGRIVAFFEFGGVMCVESVNREMSPLVDNIALWMTEYLNRHLHTWIQDNGGWDAFVELYGPSMRA
B5: BCL-2ΔLΔC V156D (domain or fragment, human)
chain: MAHAGRTGYDNREIVMKYIHYKLSQRGYEWDAGDDVEENRTEAPEGTESEVVHLTLRQAGDDFSRRYRRDFAEMSSQLHLTPFTARGRFATVVEELFRDGVNWGRIVAFFEFGGDMCVESVNREMSPLVDNIALWMTEYLNRHLHTWIQDNGGWDAFVELYGPSMRA
B6: BCL-2ΔLΔC R129L (domain or fragment, human)
chain: MAHAGRTGYDNREIVMKYIHYKLSQRGYEWDAGDDVEENRTEAPEGTESEVVHLTLRQAGDDFSRRYRRDFAEMSSQLHLTPFTARGLFATVVEELFRDGVNWGRIVAFFEFGGVMCVESVNREMSPLVDNIALWMTEYLNRHLHTWIQDNGGWDAFVELYGPSMRA
B7: BCL-2ΔLΔC F104L (domain or fragment, human)
chain: MAHAGRTGYDNREIVMKYIHYKLSQRGYEWDAGDDVEENRTEAPEGTESEVVHLTLRQAGDDLSRRYRRDFAEMSSQLHLTPFTARGRFATVVEELFRDGVNWGRIVAFFEFGGVMCVESVNREMSPLVDNIALWMTEYLNRHLHTWIQDNGGWDAFVELYGPSMRA

The test addresses FITC-BIM BH3 (FITC at the N-terminus). The experiment in a line: fluorescence polarisation. For orientation: Fluorescence polarisation rises when a labelled molecule tumbles more slowly, as on binding a larger partner.
Regarding B1, the concentration for an effect of 90% (EC90) (in general, the point of the concentration-response curve where the effect stands at 90%) was 8.6 nM.
B2 yielded an EC90 of 21 nM.
For B3 the value was 23 nM; for B4, 5.8 nM; for B5, 17 nM.
On to B6, for which the EC90 worked out at 8.7 nM.
For B7, the EC90 was found to be 1.6 nM.

These data come from publication PMC12480952 (Nature Communications, 2025).
